The results in this text go back to the supplement of paper PMC10567573.

The series can be described thus: protein stability index of a GFP-peptide fusion (GPS, HEK-293T) (PSI 1-6); higher = more stable. The note with it: c terminus: a fixed tail appended.

± gives the standard deviation.
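Further: 24-mer peptide tiles fused after GFP, lentivirally expressed, FACS-sorted into six equal bins by GFP/DsRed ratio, decoded by Illumina sequencing, PSI is the read-weighted mean bin number.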

ESGKEEGMKIDLIDGKGRGVIATK [KMT5A]: the protein stability index was 5.12 ± 0.41 (treatment: DMSO) and 5.39 ± 0.39 (treatment: MLN4924 1 uM, 8 h).

With VGFMWRQRGRVISLWERLEFVNGW [MCOLN1], the protein stability index (treatment: DMSO) was determined as 2.59 ± 0.65 and the protein stability index (treatment: MLN4924 1 uM, 8 h) came out at 3.05 ± 0.62.

Regarding TGKWYELQDLQVTDILPQMITLSE [USP39], the protein stability index by setting is: (treatment: DMSO) 2.51 ± 0.29; (treatment: MLN4924 1 uM, 8 h) 2.85 ± 0.18.

As for TTSWGLLSLGALVALCWQLGLLFE [SCNN1D], the protein stability index is, setting by setting: (treatment: DMSO) 2.11 ± 0.13; (treatment: MLN4924 1 uM, 8 h) 2.13 ± 0.37.

On to YLDLPGSRQGSAEALRALQEGLWL [PKD2L1], for which the protein stability index reads like this: (treatment: DMSO) 2.71 ± 0.27; (treatment: MLN4924 1 uM, 8 h) 2.64 ± 0.34.

Take EGDATRDPGPEPEEEPGVRNGMAS [PSD2]: the protein stability index is, setting by setting: (treatment: DMSO) 5.7 ± 0.16; (treatment: MLN4924 1 uM, 8 h) 5.38 ± 0.34.

Regarding SSENFDDYMKEVGVGFATRKVAGM [FABP4], the protein stability index was determined as 3.27 ± 0.1 (treatment: DMSO) and 3.55 ± 0.3 (treatment: MLN4924 1 uM, 8 h).

As for PWCPHLVAVCPIPAAGLDVTQPCG [HDAC6], the protein stability index by setting is: (treatment: DMSO) 2.4 ± 0.24; (treatment: MLN4924 1 uM, 8 h) 2.67 ± 0.34.

Turning to GYNDYTINVWDVLKGSRVSILFGH [GNB5], the protein stability index is, setting by setting: (treatment: DMSO) 2.28 ± 0.39; (treatment: MLN4924 1 uM, 8 h) 2.3 ± 0.37.

FENPADAKNAAKDMNGKSLHGKAI [RBMY1A1]: the protein stability index is 4.92 ± 0.14 (treatment: DMSO) and 5 ± 0.23 (treatment: MLN4924 1 uM, 8 h).

Regarding ALLDLHFPSDHLGDLGDPFHLGLE [TFE3], the protein stability index reads like this: (treatment: DMSO) 2.37 ± 0.36; (treatment: MLN4924 1 uM, 8 h) 2.32 ± 0.28.

As to LIFLSNFPFSLLGLLALAIGLWGL [TSPAN10], the protein stability index worked out at 3.21 ± 0.27 (treatment: DMSO) and 2.93 ± 0.25 (treatment: MLN4924 1 uM, 8 h).

In the case of VSQLYPESIVPIPSSNEEIRLVDD [INTS4], the protein stability index came to 4.92 ± 0.18 (treatment: DMSO) and 4.88 ± 0.081 (treatment: MLN4924 1 uM, 8 h).

For SLAAFSVISVVSYLILALLSVTIS [RTN3], the protein stability index reads like this: (treatment: DMSO) 3.41 ± 0.21; (treatment: MLN4924 1 uM, 8 h) 2.8 ± 0.19.

Turning to NVQTEFPGEDENPEKASELSQVEL [TRIM55], the protein stability index by setting is: (treatment: DMSO) 5.48 ± 0.35; (treatment: MLN4924 1 uM, 8 h) 5.57 ± 0.3.

GYVPSNYVERKNSLKKGSLVKNLK [NCK2] had a protein stability index (treatment: DMSO) of 3.96 ± 0.16 and a protein stability index (treatment: MLN4924 1 uM, 8 h) of 3.89 ± 0.19.

Sequence FFLRGRLDQLLRHVMNPLETLSIT [PRAME] showed a protein stability index (treatment: MLN4924 1 uM, 8 h) of 2.1 ± 0.52.

HSTSLKVPLARSLQISEELLSRNQ [LCOR]: the protein stability index runs as follows: (treatment: DMSO) 4 ± 0.24; (treatment: MLN4924 1 uM, 8 h) 3.97 ± 0.099.

Take SLGQLPLPPIPHVFSAGTGSAILP [PLAGL1]: the protein stability index was 2.82 ± 0.28 (treatment: DMSO) and 3.07 ± 0.22 (treatment: MLN4924 1 uM, 8 h).

In the case of CRETGSFLDLFRYRVLLGHTLILM [SLC22A15], the protein stability index is, setting by setting: (treatment: DMSO) 2.97 ± 0.59; (treatment: MLN4924 1 uM, 8 h) 2.45 ± 0.38.

MYQELMEMCHKPDVELLQDLGDIV [TRIM43]: the protein stability index (treatment: DMSO) is 2.57 ± 0.28 and the protein stability index (treatment: MLN4924 1 uM, 8 h) was 2.71 ± 0.45.

For FLQRCLESPFSRKLDLWSFLDIPR [NET1], the protein stability index by setting is: (treatment: DMSO) 2.45 ± 0.47; (treatment: MLN4924 1 uM, 8 h) 2.1 ± 0.18.

As to AAFGHVQRAEMLPKTSGTRATSLG [CPOX], the protein stability index is, setting by setting: (treatment: DMSO) 3.82 ± 0.18; (treatment: MLN4924 1 uM, 8 h) 3.91 ± 0.077.

As to NEYAYLPLHVHEEEGILVAVGQDC [DCAF4], the protein stability index by setting is: (treatment: DMSO) 3.75 ± 0.18; (treatment: MLN4924 1 uM, 8 h) 3.91 ± 0.12.

On to QGENQEHLVIAEMMELGSRSRGAS [FATE1], for which the protein stability index stood at 4.73 ± 0.34 (treatment: DMSO) and 4.73 ± 0.12 (treatment: MLN4924 1 uM, 8 h).

In the case of TEPPQNPVTPLGLQNEVPPQPDPV [SERTAD3], the protein stability index runs as follows: (treatment: DMSO) 5.32 ± 0.26; (treatment: MLN4924 1 uM, 8 h) 5.48 ± 0.24.

In turn, LKDFTLNETVNSIFAQGAPRSSLA [ADAMTSL2] displayed a protein stability index (treatment: DMSO) of 3.01 ± 0.17 and a protein stability index (treatment: MLN4924 1 uM, 8 h) of 3.26 ± 0.32.

In the case of WEISWPLEQRGTHAVVGVATALAP [SPSB2], the protein stability index amounted to 2.44 ± 0.26 (treatment: DMSO) and 2.73 ± 0.36 (treatment: MLN4924 1 uM, 8 h).

In the case of HTFAGDDCQAGLNFADEDEAQAFR [WAS], the protein stability index by setting is: (treatment: DMSO) 5.26 ± 0.18; (treatment: MLN4924 1 uM, 8 h) 4.92 ± 0.38.

KEEDHYQRARKEREKEDYLHLKRQ [RHOBTB2]: the protein stability index is 4.85 ± 0.15 (treatment: DMSO) and 5.01 ± 0.19 (treatment: MLN4924 1 uM, 8 h).

For PVCADLQAKILQCYRENTHQTLKC [CHCHD3], the protein stability index reads like this: (treatment: DMSO) 3.02 ± 0.23; (treatment: MLN4924 1 uM, 8 h) 3 ± 0.25.

NNLTDRIVVIPGKVEEVSLPEQVD [CARM1]: the protein stability index reads like this: (treatment: DMSO) 5.1 ± 0.13; (treatment: MLN4924 1 uM, 8 h) 5.27 ± 0.23.

As to LFLKDVLGDEICCWSFYGQGRKIA [KCTD13], the protein stability index stood at 2.64 ± 0.42 (treatment: DMSO) and 2.07 ± 0.55 (treatment: MLN4924 1 uM, 8 h).

As for KIINTKKLSARDHQKLEREARICR [CAMK2B], the protein stability index by setting is: (treatment: DMSO) 3.45 ± 0.29; (treatment: MLN4924 1 uM, 8 h) 3.88 ± 0.24.

For the sequence TNVKFLAITTDCLQILAYGNQESK [CTNNB1], the protein stability index was 2 ± 0.2 (treatment: DMSO) and 2.17 ± 0.16 (treatment: MLN4924 1 uM, 8 h).

For the sequence LGTELAERQGNGQQAMSLAILRVI [KCNA3], the protein stability index by setting is: (treatment: DMSO) 2.42 ± 0.19; (treatment: MLN4924 1 uM, 8 h) 2.52 ± 0.12.
